Results on one substance are retold here after publication PMC6996315.

The target of this experiment is human α3β2 nicotinic acetylcholine receptor (human) (UniProt P32297).
Chain of UniProt P32297 (P32297 32-505, chain 1 of 2): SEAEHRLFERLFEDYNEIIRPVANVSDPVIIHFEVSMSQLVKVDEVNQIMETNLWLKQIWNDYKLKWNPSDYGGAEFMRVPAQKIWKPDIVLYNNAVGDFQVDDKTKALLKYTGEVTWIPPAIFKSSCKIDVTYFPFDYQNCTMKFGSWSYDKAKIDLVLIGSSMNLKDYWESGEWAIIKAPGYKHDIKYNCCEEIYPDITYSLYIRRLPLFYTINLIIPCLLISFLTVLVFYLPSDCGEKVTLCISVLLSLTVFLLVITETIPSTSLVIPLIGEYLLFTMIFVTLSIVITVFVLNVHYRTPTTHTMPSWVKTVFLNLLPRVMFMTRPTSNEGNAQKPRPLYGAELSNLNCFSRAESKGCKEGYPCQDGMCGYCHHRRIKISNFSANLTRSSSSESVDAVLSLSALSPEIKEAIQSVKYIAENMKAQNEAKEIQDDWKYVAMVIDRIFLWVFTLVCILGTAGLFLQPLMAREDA
Chain of UniProt P32297 (P17787 26-502, chain 2 of 2, further chain): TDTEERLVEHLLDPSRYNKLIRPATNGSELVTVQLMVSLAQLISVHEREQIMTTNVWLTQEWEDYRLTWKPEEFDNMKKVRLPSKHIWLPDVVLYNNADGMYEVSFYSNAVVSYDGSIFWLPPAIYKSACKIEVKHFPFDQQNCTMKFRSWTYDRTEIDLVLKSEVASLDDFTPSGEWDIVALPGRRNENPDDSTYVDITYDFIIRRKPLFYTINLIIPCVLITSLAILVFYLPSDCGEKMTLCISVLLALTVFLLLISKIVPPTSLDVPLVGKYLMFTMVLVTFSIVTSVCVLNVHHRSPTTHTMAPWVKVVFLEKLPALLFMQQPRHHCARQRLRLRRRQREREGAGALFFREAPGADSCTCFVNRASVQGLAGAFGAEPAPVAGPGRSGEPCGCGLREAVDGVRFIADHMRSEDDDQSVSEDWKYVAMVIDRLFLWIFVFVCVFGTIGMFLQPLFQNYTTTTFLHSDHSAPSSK

drysdalin (natural protein) registered an inhibition of ACh‐evoked peak current at 30 nmol/L drysdalin, Xenopus oocytes of 13%.
